Assay results as given in publication PMC5500506.

Tested on: T1, GdmRIII (Streptomyces autolyticus CGMCC0516), ORF:755639c7
T1 sequence: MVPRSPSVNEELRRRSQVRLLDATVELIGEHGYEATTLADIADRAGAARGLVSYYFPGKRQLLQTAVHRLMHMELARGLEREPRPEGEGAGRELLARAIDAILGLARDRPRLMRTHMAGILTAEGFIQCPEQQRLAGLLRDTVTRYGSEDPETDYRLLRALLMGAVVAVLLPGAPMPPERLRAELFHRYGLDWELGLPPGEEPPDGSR
Experiment: EMSA
Conditions: EMSA: 10 mM Tris-HCl pH 7.5, 50 mM NaCl, 10 mM MgCl2, 1 mM EDTA, 1 mM DTT, 5% glycerol, 0.1 ug/ul poly(dI-dC), 0.3 nM DNA; temperature not given

binding, binds:
GCGACGTCCACCGCCGTCTCCTTCCCGCTCATTCGCCCGCCAGGATCAGATCGACCGTGTCCTGGAACTCGTCCGCCTTCACCAGCACCTTGGTGCGCTCCACCCCGTCCTCGACGGTGAAGCAGCGCCTGCCGATCAGCACGATCTTTCCGTTGTCCGTGGCCCGGCTGCGGAAGGTGGTCCCGGCGAGCACCGAGTCCTGTGCGTAGTCGTCCAGGCTGTCCAGCCGCACCGCGTCCCAGCCGGACGGGTCGGCCAGCTCCGGCCGGAACCGGTACACCGGCTGCCAGCCGCTCTC (double strand) [gdmM promoter]
GCTCACCGACCCCGCGCACGAGGTGCTGGTCATCACGATGGCCGACCGGTTCGGCCCGCACGGCGCCGTCGGCATCGTGCTGCTGGAACGCCACCCGGCGGTGTGGCATCTGAAACTGCTCGCCACCTCCTGCCGTGTGGTCTCCTACGGCGCCGGGTCCACCCTGCTGAACTGGCTGGCCGACCAGGCGGCGCGTGCCGGGGTGCATCTGGCCGCCGACTTCCGGCGCACCGACCGCAACCGGATGATGGAGGTCGCCTACCGCTTCGCCGGGTTCGCCGACGCCGACTGCGCCTGCAC (double strand) [gdmN promoter]
AGGAGCTGCCCGACTGGCGGTCCTTCTGGGAGCTGCCGCACGACATCGTCGATGTGCGCGGCAACCACTTCACCATGATGGAGGACCACTCCCTCCCCACCGCCCAGGCCATCGAGGACTGGCTGGAGCGACT (double strand) [elaF promoter]
